# US20230357354A1, “CD38-BINDING CD31 PEPTIDES AND USES THEREOF” (ENCEFA, priority 2020, published 2023)
# Legend:
# [1] = target: recombinant His-tagged CD38 (human) (UniProt P28907); assay: Pepscan ELISA, LOOP7 array; His-tagged CD38 in solution, anti-His HRP
# [2] = target: CD38 on cells of rat midbrain cultures (rat (cultures from Wistar rat embryos)) (UniProt Q64244); assay: cell-based or functional assay
# Sequence of CD38 on cells of rat midbrain cultures (rat (cultures from Wistar rat embryos)) (Q64244 whole entry): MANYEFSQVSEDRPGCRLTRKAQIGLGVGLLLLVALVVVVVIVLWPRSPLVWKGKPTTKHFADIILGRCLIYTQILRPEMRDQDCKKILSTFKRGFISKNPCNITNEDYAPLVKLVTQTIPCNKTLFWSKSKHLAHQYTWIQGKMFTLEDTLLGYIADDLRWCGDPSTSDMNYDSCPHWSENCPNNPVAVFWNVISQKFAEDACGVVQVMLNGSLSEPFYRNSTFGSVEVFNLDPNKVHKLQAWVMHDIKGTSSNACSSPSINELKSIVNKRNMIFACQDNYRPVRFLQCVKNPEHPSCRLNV
Value (Pepscan ELISA signal) [1],"EC50, prevention of MPP^+-induced DA cell loss in rat midbrain cultures [2]",Substance
651 mAU,,CD31 peptide CEYOVLVEC (LOOP7)
,0.036 µg/mL,murine sCD31 (SEQ ID NO: 18) (from UniProt Q08481 18-585) (ligand)
